The experiment addresses FcγRIIIa-bio (UniProt P08637). The experiment can be described thus: BLI (Fortebio), FcγRIIIa-bio immobilized on SA sensor, antibody 31.3-500 nM, 1:1 fit.
UniProt P08637, sequence (P08637 17-208 limits assumed): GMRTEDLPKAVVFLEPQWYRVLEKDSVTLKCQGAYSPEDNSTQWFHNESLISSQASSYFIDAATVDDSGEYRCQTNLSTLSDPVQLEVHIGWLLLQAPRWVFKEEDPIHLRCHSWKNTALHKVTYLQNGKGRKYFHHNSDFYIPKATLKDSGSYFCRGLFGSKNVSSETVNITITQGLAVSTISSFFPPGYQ

The Kd is the equilibrium constant for the complex coming apart. As a reminder, the koff is the first-order rate constant of dissociation. A lower koff goes with a long-lived complex. What is called kon is a measure of how fast the partners come together. Read a low kon as slower complex formation. Substance MEDI9447 (Oleclumab) (antibody) returned a Kd of 141 nM, a koff of 0.0342 s⁻¹ and a kon of 243000 M⁻¹ s⁻¹.

The values above are taken from patent US20250129163A1.
